Two substances from patent US7118737 can be followed below.

The target of this assay is CCR5 (UniProt P51681). Kind of assay: cell-based or functional assay.
UniProt P51681, sequence (P51681 whole entry): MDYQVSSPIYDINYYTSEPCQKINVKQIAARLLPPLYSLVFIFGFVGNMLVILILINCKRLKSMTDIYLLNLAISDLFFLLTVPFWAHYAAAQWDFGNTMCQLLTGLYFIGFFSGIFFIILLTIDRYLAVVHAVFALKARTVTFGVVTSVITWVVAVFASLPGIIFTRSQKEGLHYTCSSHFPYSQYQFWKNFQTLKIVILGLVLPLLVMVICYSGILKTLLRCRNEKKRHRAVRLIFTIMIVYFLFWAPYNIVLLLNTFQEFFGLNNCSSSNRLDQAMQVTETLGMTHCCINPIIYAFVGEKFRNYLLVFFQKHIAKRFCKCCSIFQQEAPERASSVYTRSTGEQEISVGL

The substance “AOP-RANTES (2-68) (from UniProt P13501 25-91) (ligand)” displayed an EC50, inhibition of HeLa P4-CCR5/HeLa-Env-ADA cell fusion (β-galactosidase reporter) of 1.81 nM.

Take “NNY-RANTES (2-68) (from UniProt P13501 25-91) (ligand)”: the EC50, inhibition of HeLa P4-CCR5/HeLa-Env-ADA cell fusion (β-galactosidase reporter) worked out at 0.323 nM.
